In patent US20180327500A1 (SYMPHOGEN A S, published 2018) one finds Kd, koff and kon data, which are given here for two molecules.

The term Kd denotes a measure of binding affinity in units of concentration. Low readings indicate a tighter complex, high ones a looser complex. Broadly, the koff is the rate constant with which the complex falls apart. A low value points to slow dissociation. Broadly, the kon is the second-order rate constant of association. A lower kon goes with slower complex formation.

For the assay, the target named is T1, His tagged human MET ECD (Sinobiological) (human, UniProt P08581 25-932).
T1 construct: Bought monovalent antigen; also called human MET antigen; not shown: His tag
T1 sequence (P08581 25-932): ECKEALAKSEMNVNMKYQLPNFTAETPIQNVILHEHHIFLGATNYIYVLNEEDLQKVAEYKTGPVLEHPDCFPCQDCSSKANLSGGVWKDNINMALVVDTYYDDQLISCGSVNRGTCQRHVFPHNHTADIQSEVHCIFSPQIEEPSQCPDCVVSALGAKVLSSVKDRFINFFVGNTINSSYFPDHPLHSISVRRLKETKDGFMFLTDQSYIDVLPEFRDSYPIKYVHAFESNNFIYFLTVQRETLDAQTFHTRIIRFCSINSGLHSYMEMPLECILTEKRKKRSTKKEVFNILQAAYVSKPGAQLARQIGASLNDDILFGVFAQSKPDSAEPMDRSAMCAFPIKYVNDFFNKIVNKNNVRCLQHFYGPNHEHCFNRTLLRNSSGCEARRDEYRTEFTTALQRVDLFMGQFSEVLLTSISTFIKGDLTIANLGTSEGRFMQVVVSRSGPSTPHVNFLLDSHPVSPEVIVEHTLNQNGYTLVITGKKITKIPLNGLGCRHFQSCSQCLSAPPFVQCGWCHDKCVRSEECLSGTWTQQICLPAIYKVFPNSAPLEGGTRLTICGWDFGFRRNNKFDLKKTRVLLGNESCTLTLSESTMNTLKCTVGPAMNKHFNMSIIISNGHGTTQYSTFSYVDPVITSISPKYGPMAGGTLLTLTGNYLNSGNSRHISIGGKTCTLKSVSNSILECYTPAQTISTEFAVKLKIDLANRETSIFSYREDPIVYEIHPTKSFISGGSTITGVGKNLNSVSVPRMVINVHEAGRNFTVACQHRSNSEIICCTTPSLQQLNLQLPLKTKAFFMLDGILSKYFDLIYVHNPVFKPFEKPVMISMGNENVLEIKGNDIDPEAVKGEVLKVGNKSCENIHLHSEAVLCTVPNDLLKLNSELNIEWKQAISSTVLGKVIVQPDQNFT
Nature of the assay: BLI (Octet QK384); antibody captured on anti-human Fc sensors, monovalent MET ECD in solution, 1:1 Langmuir fit.

B1: chimeric antibody 9338 (antibody, V domains shown)
VH: QVQLQQPGAELAKPGASVRMSCKASGYTFTSYWMHWVKQRPGQGLEWIGYINPSSGHIENNQKFKDKATLTADKSSSTAYMQLSSLTFEDSAVYYCARGRFAYWGQGTLVTVSS
VL: DIVMTQSPAIMSASPGEKVTLTCSASSSVSSGYLYWYQQKPGSSPKLWIYSTSNLASGVPARFSGSGSGTSYSLTVNSMEAEDAASYFCHQWSSYPFTFGSGTKLELK
Consider B1, for which the Kd turned out to be 0.6 nM, the koff turned out to be 0.00011 s⁻¹ and the kon turned out to be 190000 M⁻¹ s⁻¹.

B2: chimeric antibody 9006 (antibody, V domains shown)
VH: QIHLGQSGPELKKPGETVKISCKASGYTFTNFRMNWVKQAPGKGLKWMGWINTYTGEPTYVDDLKGRFAFSLETSASTAYLQINNLKNEDMATYFCARKGIARAMDYWGQGTSVTVSS
VL: NIVMTQSPSSLSVSAGEMVTMSCKSSQSLLDSGNQKNYLAWYQQKPGQPPQLLIFGASTRESGVPDRFTGSGSGTDFTLTVSSVQAEDLAVYYCQNDHSYPYTFGGGTKLEIK
On to B2, for which the Kd was determined as 2.2 nM, the koff worked out at 0.00012 s⁻¹ and the on-rate (kon) was determined as 54000 M⁻¹ s⁻¹.
